This passage reports protein stability index results from the supplement of paper PMC10724198.

In series [1] the test system is Saccharomyces cerevisiae. Nature of the series: protein stability index of tFT-peptide fusion in wild type (PSI (0-1 scale)); higher = more stable (slower turnover). The note with it: genetic background: wild type. As for the experimental part: (§1)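 MPS profiling in S. cerevisiae of two library types built from selected 12-aa C-degron peptides (IN1, IN2, LN1, LN3, VN2, R1-R5, W1-W3, Atg1 and Rpa12 C-termini): saturation mutagenesis libraries and C-terminal +1 capping libraries (13 aa). Each peptide is fused to the C-terminus of a sfGFP-mCherry timer, after a GGGS linker. Cells are FACS-sorted into 8 mCherry/sfGFP bins and sequenced. PSI runs from 0 (unstable) to 1 (stable), measured once in wild type and in the das1Δ or doa10Δ background.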

The subject of series [2] is Saccharomyces cerevisiae. Nature of the series: protein stability index of tFT-peptide fusion in deletion strain of DAS1 (PSI (0-1 scale)); higher = more stable (slower turnover). How it is done: as §1
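Wherever protein stability index of tFT-peptide fusion in deletion strain of DAS1 is given: PSI is a weighted mean of each variant's read distribution over the sorted stability bins, computed only for variants having over 10 reads in total.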
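Wherever protein stability index of tFT-peptide fusion in wild type is given: PSI derived as read-weighted mean over the 8 sorting bins, only variants exceeding 10 total reads kept, mCherry placed adjacent to the peptide and sfGFP distal.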

For the sequence ARVRVGLWRGAS, the results for the protein stability index in series [1] and in series [2] were 0.599 and 0.694, respectively.
Consider ARWDVGLWRGAS, for which the protein stability index in series [1] came out at 0.543; in series [2] it was 0.729.
On to ARWRGGLWRGAS, for which the figures for the protein stability index in series [1] and in series [2] were 0.543 and 0.677, respectively.
For ARWRPGLWRGAS, the figures for the protein stability index in series [1] and in series [2] were 0.668 and 0.679, respectively.
Turning to ARWRSGLWRGAS, the results for the protein stability index in series [1] and in series [2] were 0.665 and 0.676, respectively.
Turning to ARWRVGLPRGAS, the protein stability index in series [1] was 0.688; in series [2] it was 0.666.
For ARWRVGLWRGASK, the protein stability index in series [1] is 0.672; in series [2], 0.622.
On to ARWRVGLWRGAV, for which the protein stability index was determined as 0.395 in series [1] and 0.688 in series [2].
For the sequence ARWRVGLWRGFS, the protein stability index in series [1] came out at 0.599; in series [2], 0.678.
As to ARWRVGLWRGQS, the protein stability index in series [1] was 0.416; in series [2] it was 0.695.
For ARWRVGLWRGWS, the figures for the protein stability index in series [1] and in series [2] were 0.668 and 0.69, respectively.
For the sequence ARWRVGLWRLAS, the protein stability index in series [1] stood at 0.0888; in series [2], 0.672.
ARWRVGQWRGAS: the protein stability index came out at 0.614 in series [1] and 0.682 in series [2].
As for ARWRVNLWRGAS, the values for the protein stability index in series [1] and in series [2] were 0.34 and 0.708, respectively.
Take ARWRVRLWRGAS: the figures for the protein stability index in series [1] and in series [2] were 0.333 and 0.671, respectively.
Turning to ARWRWGLWRGAS, the protein stability index in series [1] was 0.55; in series [2] it was 0.681.
Consider ASMRWTFRYWVN, for which the protein stability index in series [1] is 0.0684; in series [2], 0.602.
For ATSCGYKFRTNN, the results for the protein stability index in series [1] and in series [2] were 0.235 and 0.671, respectively.
Consider CASCGYKFRTNN, for which the protein stability index in series [1] was 0.281; in series [2], 0.714.
For the sequence CLSCGYKFRTNN, the protein stability index is 0.228 in series [1] and 0.701 in series [2].
For CTSCAYKFRTNN, the protein stability index in series [1] was determined as 0.172; in series [2], 0.665.
For CTSCDYKFRTNN, in that order: 0.556 and 0.689.
Consider CTSCGTKFRTNN, for which the figures for the protein stability index in series [1] and in series [2] were 0.552 and 0.693, respectively.
With CTSCGWKFRTNN, the protein stability index in series [1] amounted to 0.306; in series [2], 0.673.
For CTSCGYGFRTNN, the figures for the protein stability index in series [1] and in series [2] were 0.594 and 0.693, respectively.
On to CTSCGYKFRANN, for which the results for the protein stability index in series [1] and in series [2] were 0.538 and 0.698, respectively.
As to CTSCGYKFRNNN, the protein stability index in series [1] was found to be 0.681; in series [2] it was 0.703.
For CTSCGYKFRTFN, in that order: 0.335 and 0.712.
Turning to CTSCGYKFRTNH, the protein stability index in series [1] was determined as 0.191; in series [2] it was 0.68.
The matching figures for CTSCGYKFRTNNM: 0.679 and 0.69.
As to CTSCGYKFRTSN, the results for the protein stability index in series [1] and in series [2] were 0.273 and 0.704, respectively.
In the case of CTSCGYKFRTVN, the values for the protein stability index in series [1] and in series [2] were 0.15 and 0.705, respectively.
CTSCGYKGRTNN: the protein stability index turned out to be 0.658 in series [1] and 0.674 in series [2].
Take CTSCGYKKRTNN: the values for the protein stability index in series [1] and in series [2] were 0.474 and 0.692, respectively.
Turning to CTSCGYKNRTNN, the figures for the protein stability index in series [1] and in series [2] were 0.705 and 0.696, respectively.
As to CTSCGYKPRTNN, the protein stability index was 0.693 in series [1] and 0.683 in series [2].
For the sequence CTSCGYRFRTNN, the results for the protein stability index in series [1] and in series [2] were 0.464 and 0.679, respectively.
